We go through four molecules from ChEMBL document CHEMBL2177050, “Understanding the binding of daunorubicin and doxorubicin to NADPH-dependent cytosolic reductases by computational methods” (Eur J Med Chem, 2012).

For orientation: Km means the concentration of substrate that gives half-maximal velocity. What is called kcat is the maximal rate divided by the concentration of active sites.

In data set [1] the target is T1, Aldo-keto reductase family 1 member A1 (Homo sapiens) (UniProt P14550).
T1 sequence (whole entry): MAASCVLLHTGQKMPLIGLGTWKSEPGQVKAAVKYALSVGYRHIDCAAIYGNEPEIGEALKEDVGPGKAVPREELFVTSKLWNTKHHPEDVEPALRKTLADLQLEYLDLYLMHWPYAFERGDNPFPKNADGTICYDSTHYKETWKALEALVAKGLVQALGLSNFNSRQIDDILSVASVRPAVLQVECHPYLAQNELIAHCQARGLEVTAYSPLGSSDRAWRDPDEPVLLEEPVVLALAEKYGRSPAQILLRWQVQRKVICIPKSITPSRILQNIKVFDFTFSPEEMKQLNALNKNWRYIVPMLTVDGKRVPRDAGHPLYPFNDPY
The experiment in a line: Activity of human AKR1A1 expressed in Escherichia coli BL21 assessed per mg protein in presence of 0.2 mM NADPH.

Substrate in data set [2]: COc1cccc2c1C(=O)c1c(O)c3c(c(O)c1C2=O)C[C@@](O)(C(=O)CO)C[C@@H]3O[C@H]1C[C@H](N)[C@H](O)[C@H](C)O1
Kind of data set: Activity of GST-tagged aldo-keto reductase 1A1.

Substrate in data set [3]: COc1cccc2c1C(=O)c1c(O)c3c(c(O)c1C2=O)C[C@@](O)(C(=O)CO)C[C@@H]3O[C@H]1C[C@H](N)[C@H](O)[C@H](C)O1
The experiment in a line: (§1) Activity of human recombinant His6-tagged carbonyl reductase 1 expressed in Escherichia coli BL21(DE3) using menadione as substrate by Michaelis-Menten plot analysis.

Substrate in data set [4]: COc1cccc2c1C(=O)c1c(O)c3c(c(O)c1C2=O)C[C@@](O)(C(C)=O)C[C@@H]3O[C@H]1C[C@H](N)[C@H](O)[C@H](C)O1
The data set is described as §1.

Substrate in data set [5]: COc1cccc2c1C(=O)c1c(O)c3c(c(O)c1C2=O)C[C@@](O)(C(=O)CO)C[C@@H]3O[C@H]1C[C@H](N)[C@H](O)[C@H](C)O1
Kind of data set: Activity of His-tagged carbonyl reductase 1.

Substrate in data set [6]: COc1cccc2c1C(=O)c1c(O)c3c(c(O)c1C2=O)C[C@@](O)(C(=O)CO)C[C@@H]3O[C@H]1C[C@H](N)[C@H](O)[C@H](C)O1
Kind of data set: (§2) Activity of human carbonyl reductase 1.

Substrate in data set [7]: COc1cccc2c1C(=O)c1c(O)c3c(c(O)c1C2=O)C[C@@](O)(C(C)=O)C[C@@H]3O[C@H]1C[C@H](N)[C@H](O)[C@H](C)O1
The data set is described as §2.

Consider `COc1cccc2c1C(=O)c1c(O)c3c(c(O)c1C2=O)C[C@@](O)(C(=O)CO)C[C@@H]3O[C@H]1C[C@H](N)[C@H](O)[C@H](C)O1`, for which the Activity in data set [1] came to 11 nmol/min.

On to `COc1cccc2c1C(=O)c1c(O)c3c(c(O)c1C2=O)C[C@@](O)(C(C)=O)C[C@@H]3O[C@H]1C[C@H](N)[C@H](O)[C@H](C)O1`, for which, in data set [1], the Activity stood at 120 nmol/min.

B1: Aldo-keto reductase family 1 member A1 (Homo sapiens), P14550 (protein)
chain: MAASCVLLHTGQKMPLIGLGTWKSEPGQVKAAVKYALSVGYRHIDCAAIYGNEPEIGEALKEDVGPGKAVPREELFVTSKLWNTKHHPEDVEPALRKTLADLQLEYLDLYLMHWPYAFERGDNPFPKNADGTICYDSTHYKETWKALEALVAKGLVQALGLSNFNSRQIDDILSVASVRPAVLQVECHPYLAQNELIAHCQARGLEVTAYSPLGSSDRAWRDPDEPVLLEEPVVLALAEKYGRSPAQILLRWQVQRKVICIPKSITPSRILQNIKVFDFTFSPEEMKQLNALNKNWRYIVPMLTVDGKRVPRDAGHPLYPFNDPY
Take B1: in data set [2], the Michaelis constant (Km) turned out to be 247 µM and the kcat was found to be 0.000667 s⁻¹.

B2: Carbonyl reductase [NADPH] 1 (Homo sapiens), P16152 (protein)
chain: MSSGIHVALVTGGNKGIGLAIVRDLCRLFSGDVVLTARDVTRGQAAVQQLQAEGLSPRFHQLDIDDLQSIRALRDFLRKEYGGLDVLVNNAGIAFKVADPTPFHIQAEVTMKTNFFGTRDVCTELLPLIKPQGRVVNVSSIMSVRALKSCSPELQQKFRSETITEEELVGLMNKFVEDTKKGVHQKEGWPSSAYGVTKIGVTVLSRIHARKLSEQRKGDKILLNACCPGWVRTDMAGPKATKSPEEGAETPVYLALLPPDAEGPHGQFVSEKRVEQW
As to B2, the Km in data set [3] is 287 µM; in data set [4], 51 µM; in data set [5], 167 µM; in data set [6] it was 90 µM; in data set [7], 108 µM. For the same molecule, the kcat turned out to be 0.21 s⁻¹ in data set [3], 1.94 s⁻¹ in data set [4], 0.0103 s⁻¹ in data set [5] and 1.27 s⁻¹ in data set [7].
